B1: PA12P3C01 (antibody, human IgG1, V domains shown)
VH: QVQLVQSGAEVKKPGASVKVSCQASGYTFTRYDINWVRQATGQGLEWMGWLNPKSGDTGYAQKFQGRVTMTRDTSISTAYMELTSLTSDDTAVYYCARGVDANHWGQGSLVTVSS
VL: DIVVTQSPDSLAVSLGERATINCKSSQSIFDTSSNKNYLAWFRQRPGQPPQLLIYWASTRESGVPDRFSGSGSGTDFTLTISSLQAEDVAVYYCHQYYSLPHAFGQGTKLEIK
notes: human IgG1
B2: PA12P3E04 (antibody, human IgG1, V domains shown)
VH: EVKVVESGGGLVQPGGSLRLSCAASEFTFTYYWMSWIRQAPGKGLEWVANVNGDATEKYYVDSVKGRFTISRDNPKKTVYLQMNSLRVEDTAVYYCARVGTTVVNDGFDLWGLGTMVTVSS
VL: SYVLTQSHSVSVAPGQTARITCGGENIGGKGVHWYQQKPGQAPLLVVSSDTGRRSVTPDRFSGSNSGDTATLIISRVEAGDEADYYCQVWDPTSEYVFGSGTKVTVL
notes: human IgG1
B3: PA11P1D12 (antibody, human IgG1, V domains shown)
VH: QVQLRVSGPGLVNPSETLSLTCIVSGDSLRDYYWSWIRQSPGKGLEWIGYVTESGGAHYNPSLESRVTISVDASKTQFSLNLKSVTAADTAVYYCARDAYSSTWYTVGWFDPWGPGSLVTVSS
VL: EIVLTQSPATLSLSPGERATLSCRASQDVGVYLAWYQQKPGQAPRLIIYDASDRVSGVPARFTGSGSGTDFTLTITSLEPEDFAVYFCQQRTSGLTFGGGTTLEIK
notes: human IgG1
B4: PA11P1F03 (antibody, human IgG1, V domains shown)
VH: QVQLQQWGAGLLKPSETLSLNCTVYHGSLSTSYWSWIRQPPGRGLEWIGEINDSGATNYNPSLKSRVIISVDTSKDQFSLKLTSVTAADTAMYYCARAPLLWVGESFFYYFDSWGQGILVTVSS
VL: DIQMTQSPSSLSASVGDRVSITCRAGQSIDTYLNWYQHKPGKAPDLLIYTTSTLHSGVPSRFSGSGSGTDFTLTITSLQPEDFAIYYCQQSYKSPYTFGQGTKVEIK
notes: human IgG1
B5: PA14P1D11 (antibody, human IgG1, V domains shown)
VH: EVQLLESGGGLVQPGGSLKLSCVASGFTFSSYAMMWVRQAPGKGLEWISSISSSGGSTYYADSVKGRFTISRDNSKNTLYLQMNSLRVEDTAVYYCAKSHCSTTSCPRAFYYYGMDVWGQGTTVTVSS
VL: DIQMTQSPSSLSASVGDRVTITCRASQTITTYLNWYQQKPGKAPKLLIYAASSLQSGVPSRFSGSGSGTDFTLSLSSLQPEDSATYYCQQSYSTLGAFGGGTKVEIK
notes: subject PA14; also called Clone PA14P1D11
B6: PA11P1C04 (antibody, human IgG1, V domains shown)
VH: QVQLQESGPGLVKPSETLSLTCTVSGGSISSYYWNWIRQPPGKGLEWIGYIYYSGSTNYNPSLKSRATISVDTSKNQFSLKLSSVTAADTAVYYCARANLFGVALRRVLGPFDYWGQGTLVTVSS
VL: DIQMTQSPSSLSASVGDRVTIACRASQSIANYLNWYQQKPGKAPKLLIYAASNLQSGVPSRFSGSGSGTDFTLTISSLQPEDFATYYCQQSYSTPYTFGQGTKLEIK
notes: human IgG1
B7: PA11P1G04 (antibody, human IgG1, V domains shown)
VH: EVQLVESGGGLVQPGGSLRLSCAASGFTFSSYWMSWVRQAPGKGLEWVANIKQDGSEKDYVDSVKGRFTISRDNAKNSLYLQLNSLRAEDTAVYYCARERSTQSSSWYVSSYYSYYGMDVWGQGTTVTVSS
VL: SSELTQDPAVSVALGQTVTITCQGDSLRSFYASWYQQKPGQAPVFVIYGKYNRPSGIPDRFSGSSSGNTASLTITGAQAEDEADYYCNSRDSSDNHLGVFGGGTKLTVL
notes: human IgG1
B8: PA11P1E01 (antibody, human IgG1, V domains shown)
VH: QVQLVQSGSELRRPGASVKVSCKTSGYAFTHFAMNWLRQAPGQGLEWLGWINTHSGNPTYAQGFTGRIVFSLDTSAGTAYLEISSLKAEDTAVYYCARERYFDFWGQGTLVAVSS
VL: QSVLTQPPSASGTPGQRVTISCSGTNSNIGKNFLYWYQQLPGTAPKLLIFSSNQRPSGVPDRFSGSKSGTSASLAISGLRSEDEADYYCAAWDDNLSGWVFGGGTKVTVL
notes: human IgG1
B9: PA11P1C11 (antibody, human IgG1, V domains shown)
VH: QVQLVQSGSELRKPGASVKLSCRTSGYTFIHFAMNWLRQAPGQGLEWLGWINTHSGNPTYAQGFTGRFVFSLDVSAGTAYLEISGLKAEDTAVYYCARERYFDFWGQGALVAVSS
VL: QSVLTQPPSASGTPGQRVTISCSGTSSNIGKNFLYWYQQVPGTAPKLLIYSSNQRPSGVPDRFSGSKSGTSASLAISGLRSEDEADYYCAAWDDSLSGWVFGGGTKVTVL
notes: human IgG1
B10: PA11P1C03 (antibody, human IgG1, V domains shown)
VH: EVQLVQSGGGLVKPGGSLRLSCAASGSTLTNYNINWVRQAPGKGLQWVSSISGTRDYTYYADSVVGRFTISRDNAKNSVYLQMNSLRAEDTAVYYCARGREVGGDYDSYDWGQGTLVTVSS
VL: DIQMTQSPSSLSASVGDRVTITCQASQDISTFLHWYQQKPGKAPSVLIYGASDLKTGVPSRFSGSGSGTHFTLTISSLQPEDIATYYCQQYDHLPLTFGGGTKVEIK
notes: human IgG1
B11: PA14P3H08 (antibody, human IgG1, V domains shown)
VH: QVQLVESGGGVVQPGRSLTLSCAASGFNFKTYGMHWVRQAPGKGLEWVAVIYHDGNDKFYADSVKGRFTISRDNSKNTLYVQMSSLRADDTAIYYCAKGIFSSGYHYGMDVWGQGTAVIVSS
VL: DIQMTQSPSSLSASLGDSVTITCLASQGIKEFLSWFQQKPGQAPKLLIYDASSSHSGVPSRFSGSGSATHFTLTISSLQPDDIATYYCQQYHQVPLTFGQGTRLEIK
notes: human IgG1
B12: PA11P1D11 (antibody, human IgG1, V domains shown)
VH: QVELVESGGGVVQPGRSLRLSCVASGFTFSDYGMHWVRQAPGKGLEWVAVIWFDGSSKYYADSVKGRFTISRDDSKNTVFMQMNNVRVEDTAVYYCAREQWLGTEYFQNWGQGTLVTVSS
VL: EIVMTQSPATLSLFPGERATLSCRASQSVAGNLAWYQQKPGQAPRLLIYEASTRATDIPARFSGSGSETEFTLTISSLQSEDFAVYYCQQYKKWLITFGQGTRLEIK
notes: human IgG1
B13: PA11P1G10 (antibody, human IgG1, V domains shown)
VH: QVQLQESGPGLVKPSQTLSLTCTVSGGSINTGAYYWSWIRQHPGKGLEWIGYIYYSGSTYYNPSLKSRVTISKDTSKNQFSLRLTSVTAADTAVYYCVREKLTGAPDNWGQGTLVAVSS
VL: DIQMTQSPSSLSASVGDRVTITCRASQGVSNYLAWFHQKPGKAPKSLIYAASTLHDGVPSSFSGSGSGTEFTLTISDLQPEHFGTYYCEQYNSYPFTFGPGTTVDFK
notes: human IgG1
B14: PA12P4D02 (antibody, human IgG1, V domains shown)
VH: QVQLVESGGGVVQPGRSLRLSCAASGFTFSSYAMHWVRQAPGKGREWVAALSYDGSSTYYADSVKGRLTISRDNSKNTLYLQMNSLRAEDTAVYFCTRVPYGEGRAANDYWGQGTLVTVSS
VL: DIQMTQSPSTLSASVGDRVTITCRASQSIGSWLAWYQQKPGKAPKLLIYKASNIESGVPSRFSGSGSGTEFTLTISSLQPDDFATYYCQHYNTYSRSFGGGTEVAIK
notes: human IgG1
B15: PA12P3E09 (antibody, human IgG1, V domains shown)
VH: QVQLVQSGAEVKKPGSSVKVSCKASGGTFSSYSISWVRQAPGQGLEWMGGIIPIFGSGSYAQKFQGRVTITADKSTSTAYMELSSLSSDDTAVYYCARGESPSNFVYYGMDVWGQGTTVTVSS
VL: DIVLTQSPLSLPVTPGEPASISCRSSHSLLHSNGYNHLDWYLQKPGQSPQLLIYLGSNRASGVPDRFSGSGSGTDFTLKISRVEAEDVGVYYCMQALLVTFGPGTKVDIK
notes: human IgG1
B16: PA12P3E11 (antibody, human IgG1, V domains shown)
VH: QVQLVESGGGLVTPGGSLRLSCTVSGFTLSDYYMSWIRQAPGKGLDWLSYISGSGDNKNYADSVRGRFTISRDNSKNSLYLQMNSLRAEDTAVYYCAREFPSGGYSPGVVLWGQGTLVTVSS
VL: NFVLTQPHSVSESPGKTVTISCARSSGSIAGSFVQWYQQRPGSSPTTVIYEDTRRPSGVPDRFSGSIDSSSNSASLTISGLKTEDEADYYCQSYDSTNPWVFGGGTKLTVL
notes: human IgG1
B17: PA12P1D02 (antibody, human IgG1, V domains shown)
VH: QLQLQQWGAGLVKPSETLSLTCTVSGGSLSGHFWSWIRQSPEKGLEWIGEINHSGRKNYNPSLMIRVDISIDTSKNQFSMRMTSLTAADSAVYYCARVGRNIVDTDDAFDVWGRGTLVTVSS
VL: EIVLTQSPGTLSLSPGDTVTLSCRASQTIDSIYLAWYQQRPGQAPRLLIYGASTRATGTPDRFSGGGSGTDFTLTITRLEPEDFAVYFCQQYGTSPPITFGRGTRLEIK
notes: human IgG1
B18: PA01P2A12 (antibody, V domains shown)
VH: QVQLVQSGAEVKKPGASVMLSCKASGYIFTNSDINWVRQAPGQGPEWMGWMNPKSGNTGYEQKFQGRVTMTTNTSISTAYMELSRLRSEDTAVYYCARSTGAVAGNFDYWGQGTPVTVSS
VL: EIVMTQSPATLSVSLGDRATLSCRASQSISRNLAWYQQKPGQAPRLLIYGASIRITDIPARFSGSGSGTEFTLTISSLQSEDFAIYFCQQYNNWRTFGQGTRVELK
notes: subject PA01; also called Clone PA01P2A12
B19: PA01P2C05 (antibody, V domains shown)
VH: QLLLQESGPGLVKPSETLSLSCTVSAGSITSINYSWGWIRQPPGKGLEWIASVYFSGSIYYNPSLKSRVAISVDTSKNTFSLNLTSVTAADTAVYYCARLRLDTGRDSSGLSYREHFDYWAQGTLVTVSS
VL: DIQMTQSPSTLSASVGDRVTITCRASQSIGMWLAWFQQKPGKAPKLLIYKASTLESGVPSRFSGSGSGTEFTLTINSLQPDDFATYYCQQYNSYLFTFGPGTKVDIK
notes: subject PA01; also called Clone PA01P2C05
B20: PA01P2E06 (antibody, V domains shown)
VH: HVQLVQSGADVKKPGSSVKVSCKFSGGTFNNDSINWVRQAPGQGLEWMGVIMPFFGATRFAPKFQGRVTLTADKFTSTGYMELGSLKSDDTAVYYCARDKPPDDKWADYGMDVWGQGTTVTVSS
VL: SYELTQPPSVSVSPGQTARITCSGDALPKQYVYWYQQKTGQAPVLVIYKDTERPSGIPERFSGSTSGTTVTLTISGVQADDEADYFCQSADRNANYRVFGGGTKLTVL
notes: subject PA01; also called Clone PA01P2E06

What follows are binders tested against T1, BSA (UniProt P02769 25-607) (assay: indirect ELISA heat map, hIgG subtracted).
T1 construct: also called bovine serum albumin; immobilized BSA
T1 sequence (P02769 25-607 limits assumed): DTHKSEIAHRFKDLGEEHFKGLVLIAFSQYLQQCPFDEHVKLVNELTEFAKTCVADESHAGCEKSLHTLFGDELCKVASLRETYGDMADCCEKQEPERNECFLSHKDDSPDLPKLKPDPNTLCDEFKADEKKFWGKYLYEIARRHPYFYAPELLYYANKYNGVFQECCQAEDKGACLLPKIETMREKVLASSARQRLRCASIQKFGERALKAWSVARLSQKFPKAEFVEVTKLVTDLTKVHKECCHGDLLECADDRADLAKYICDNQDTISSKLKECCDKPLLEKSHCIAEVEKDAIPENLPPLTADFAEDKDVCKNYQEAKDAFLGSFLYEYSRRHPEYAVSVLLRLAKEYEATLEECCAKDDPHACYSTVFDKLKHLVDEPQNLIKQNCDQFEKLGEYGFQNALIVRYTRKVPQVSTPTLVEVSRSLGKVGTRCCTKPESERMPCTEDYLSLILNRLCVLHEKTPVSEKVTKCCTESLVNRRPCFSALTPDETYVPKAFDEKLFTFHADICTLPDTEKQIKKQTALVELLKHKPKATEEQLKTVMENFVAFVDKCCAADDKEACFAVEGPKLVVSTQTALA
B1: no binding (tested: 2 ng/µL). B2: no binding (tested: 2 ng/µL). B3: no binding (tested: 2 ng/µL). B4: no binding (tested: 2 ng/µL). B5: no binding (tested: 2 ng/µL). B6: no binding (tested: 2 ng/µL). B7: no binding (tested: 2 ng/µL). B8: no binding (tested: 2 ng/µL). B9: no binding (tested: 2 ng/µL). B10: no binding (tested: 2 ng/µL). B11: no binding (tested: 2 ng/µL). B12: no binding (tested: 2 ng/µL). B13: no binding (tested: 2 ng/µL). B14: no binding (tested: 2 ng/µL). B15: no binding (tested: 2 ng/µL). B16: no binding (tested: 2 ng/µL). B17: no binding (tested: 2 ng/µL).

Biological target: T1, BSA
Test: indirect ELISA heat map, hIgG subtracted
Remark: another data set of the same source
B18: no binding (tested: 2 ng/µL). B19: no binding (tested: 2 ng/µL). B20: no binding (tested: 2 ng/µL).

Source: patent US20210246195A1 (CZ BIOHUB SF, published 2021)
